The source of these data is US20020164620A1, “Method for identifying compounds modulating sister chromatid separation” (Boehringer Ingelheim International GmbH, priority 2001, published 2002).

Assay [1] relates to human separase. Nature of the assay: Rebinding of recombinant securin to mitotically activated separase immunoprecipitates. The class given is binding. The note with it: separase activated in mitotic Xenopus extracts, mostly cleaved form. How it is done: (§1) 30 microliter beads were incubated with 40 μg bacterially expressed wildtype securin, destruction box deleted form of securin (Gmachl et al., 2000) or BSA diluted in XB+1 mM DTT for 40 min at RT. Subsequently the beads were washed with XB+1 mM DTT and with TBS+0.5 M NaCl+1 mM DTT+0.5% TWEEN20, followed by one wash with XB+1 mM DTT. To control the rebinding of securin an aliquot of 5 μl was taken per assay and subsequently analysed by immunoblotting with antibodies against separase and securin.
FIG. 1A: Separase immunoprecipitates (separase IP) obtained from Nocodazole arrested HeLa cells and bound by antibodies against the C-terminus of separase coupled to beads were activated in mitotic Xenopus egg extracts (separase IP^mitotic). Mitotically activated separase immunoprecipitates were either incubated in buffer, wildtype securin, destruction box deleted securin or in BSA. Aliquots were taken and analysed by immunoblotting with antibodies against separase and securin.
Target sequence in this assay (Q14674 1-1486 limits assumed): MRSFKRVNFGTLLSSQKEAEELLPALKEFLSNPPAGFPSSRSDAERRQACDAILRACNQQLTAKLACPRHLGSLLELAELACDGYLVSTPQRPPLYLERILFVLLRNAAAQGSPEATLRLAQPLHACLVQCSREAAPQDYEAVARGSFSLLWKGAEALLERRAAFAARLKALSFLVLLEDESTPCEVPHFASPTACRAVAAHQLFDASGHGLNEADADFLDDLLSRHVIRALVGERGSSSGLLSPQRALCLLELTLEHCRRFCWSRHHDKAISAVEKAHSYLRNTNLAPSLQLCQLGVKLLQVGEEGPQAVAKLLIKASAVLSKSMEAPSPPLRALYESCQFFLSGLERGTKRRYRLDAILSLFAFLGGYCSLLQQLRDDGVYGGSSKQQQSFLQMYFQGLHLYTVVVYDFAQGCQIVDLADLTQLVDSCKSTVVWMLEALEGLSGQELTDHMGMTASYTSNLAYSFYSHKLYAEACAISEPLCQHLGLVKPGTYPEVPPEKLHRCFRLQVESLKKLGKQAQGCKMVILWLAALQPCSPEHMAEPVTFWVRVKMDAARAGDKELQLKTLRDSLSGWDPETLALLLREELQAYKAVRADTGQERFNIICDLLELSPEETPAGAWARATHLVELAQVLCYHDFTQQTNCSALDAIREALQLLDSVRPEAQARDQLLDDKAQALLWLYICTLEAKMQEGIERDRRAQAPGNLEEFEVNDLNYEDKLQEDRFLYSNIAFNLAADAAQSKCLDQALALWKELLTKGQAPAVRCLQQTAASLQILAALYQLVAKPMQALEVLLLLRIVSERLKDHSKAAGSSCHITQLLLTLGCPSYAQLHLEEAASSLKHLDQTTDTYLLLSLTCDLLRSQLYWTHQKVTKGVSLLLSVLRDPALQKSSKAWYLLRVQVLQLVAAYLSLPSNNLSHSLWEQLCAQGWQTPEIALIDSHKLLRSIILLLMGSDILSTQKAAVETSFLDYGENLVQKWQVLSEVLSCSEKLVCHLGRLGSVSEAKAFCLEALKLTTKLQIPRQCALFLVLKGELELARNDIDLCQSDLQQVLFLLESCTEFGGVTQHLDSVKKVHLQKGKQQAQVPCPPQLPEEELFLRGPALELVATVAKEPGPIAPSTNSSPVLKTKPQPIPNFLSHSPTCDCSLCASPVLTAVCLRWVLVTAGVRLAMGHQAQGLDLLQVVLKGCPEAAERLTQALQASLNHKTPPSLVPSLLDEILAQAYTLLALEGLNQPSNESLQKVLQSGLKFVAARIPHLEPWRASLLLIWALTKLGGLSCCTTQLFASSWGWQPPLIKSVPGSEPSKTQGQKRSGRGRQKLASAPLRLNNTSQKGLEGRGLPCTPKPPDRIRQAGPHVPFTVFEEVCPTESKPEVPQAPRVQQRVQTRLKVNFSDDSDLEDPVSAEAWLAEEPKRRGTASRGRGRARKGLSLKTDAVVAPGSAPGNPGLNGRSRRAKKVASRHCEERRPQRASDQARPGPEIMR
Target sequence in this assay (Q14674 1536-2120 limits assumed): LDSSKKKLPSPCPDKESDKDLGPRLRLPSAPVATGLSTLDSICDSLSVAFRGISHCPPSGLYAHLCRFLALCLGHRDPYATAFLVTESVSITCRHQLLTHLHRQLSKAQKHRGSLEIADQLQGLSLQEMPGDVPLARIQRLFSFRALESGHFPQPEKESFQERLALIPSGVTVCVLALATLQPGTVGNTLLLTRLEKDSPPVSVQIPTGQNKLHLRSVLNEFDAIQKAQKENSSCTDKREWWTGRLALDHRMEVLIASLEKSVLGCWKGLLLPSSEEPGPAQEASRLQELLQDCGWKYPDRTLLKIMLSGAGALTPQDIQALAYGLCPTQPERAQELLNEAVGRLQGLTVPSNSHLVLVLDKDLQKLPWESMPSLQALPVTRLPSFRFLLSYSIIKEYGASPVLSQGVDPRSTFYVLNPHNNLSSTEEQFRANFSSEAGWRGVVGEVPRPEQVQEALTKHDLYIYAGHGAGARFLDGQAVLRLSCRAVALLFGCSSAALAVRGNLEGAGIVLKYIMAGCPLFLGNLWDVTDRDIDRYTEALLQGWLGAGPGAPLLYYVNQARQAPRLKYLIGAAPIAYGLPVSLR

The test system of assay [2] is human separase. Nature of the assay: Covalent labelling of separase forms by biotin peptide (avidin blot). The class given is binding. To be noted: recombinant securin bound to cleaved active separase, then human peptide inhibitor (FIG. 4D). How it is done:
(§2) B. Separase immunoprecipitates were incubated with 100 μM Biotin-SVEQGR-amk or with DMSO prior mitotic activation. Incubation for 10 minutes, 22° C. and 1000 rpm. After washing twice in XB+1 mM DTT the activation was performed in mitotic Xenopus egg extracts.
Interphase Xenopus egg extracts were driven into mitosis in the presence of 1 mM Biotin-SVEQGR-amk or DMSO. Those mitotic Xenopus egg extracts were used to activate a batch of separase immunoprecipitates.
Biotin labeled peptides were detected via immunoblotting according to Faleiro et al., 1997.
C. […] After 10 min incubation at 22° C. and 1250 rpm beads were again washed and analyzed by immunoblotting.
FIG. 4B: Separase IPs (see A) were either preincubated with Biotin-SVEQGR-amk (preinc. with inh. peptide) or with DMSO (preinc. with DMSO), subsequently washed and aliquots were taken. […] All samples were analysed by immunoblotting with avidin.
FIG. 4D: Activated separase immunoprecipitates bound by antibodies against the C-terminus of separase to beads were first incubated with recombinant securin or, for control, with recombinant truncated cyclinB. […] Thereafter, the immunoprecipitates were again washed and analyzed by immunoblotting.
Target sequence in this assay (Q14674 1536-2120 limits assumed): as above

Assay [3] relates to human separase. Nature of the assay: SCC1 in vitro cleavage assay. Format: biochemical. To be noted: substance added to mitotically activated separase immunoprecipitates before SCC1-myc reaction mix. How it is done:
as §1
Target sequence in this assay (Q14674 1536-2120 limits assumed): as above
The beads were used for the SCC1 in vitro cleavage assay: 20 μl beads were mixed with 30 μl of the following SCC1 in vitro translation mix (SCC1 myc IVT+1 μl PLK-GST+0.3 μl […], 0.3 μl 100 mM ATP, 0.12 μl 250 mM EGTA, 13.78 μl XB+1 mM DTT) and incubated at 22° C. and 1200 rpm. 5 μl were taken per time point, the reaction was stopped by addition of SDS loading buffer. Samples were analyzed by immunoblotting with mouse monoclonal antibodies against myc (9E10).
as §2
Interphase Xenopus egg extracts were driven into mitosis in the presence of 1 mM Biotin-SVEQGR-amk or DMSO. […]

B1: WT-securin: human securin expressed in E. coli and purified, the wildtype protein (protein)
chain: MATLIYVDKENGEPGTRVVAKDGLKLGSGPSIKALDGRSQVSTPRFGKTFDAPPALPKATRKALGTVNRATEKSVKTKGPLKQKQPSFSAKKMTEKTVKAKSSVPASDDAYPEIEKFFPFNPLDFESFDLPEEHQIAHLPLSGVPLMILDEERELEKLFQLGPPSPVKMPSPPWESNLLQSPSSILSTLDVELPPVCCDIDI
In the case of B1, in the assay on human separase [1], the “binding of securin to separase” value is reported as “able to bind to separase”. Also, in the assay with human separase [2], the “binding of peptide inhibitors to the active site of separase” value was “prevented the binding of peptide inhibitors to the active site of separase”. For the same molecule, the “SCC1 cleavage by separase” value with human separase [3] is “no cleavage of SCC1 was detected”.
